In general, EC50 refers to the concentration that produces a half-maximal response.

Test [1] deals with T1, PD-1 on PD-1 reporter Jurkat cells (PATHHUNTER Checkpoint Signaling Assay) (UniProt Q15116 25-288). As to the kind of experiment: cell-based or functional assay.
For test [2], the target named is T1, PD-1 on PD-1 reporter Jurkat cells …. As to the kind of experiment: cell-based or functional assay. The source holds these as a separate data set.
For test [3], the target named is T2, Recombinant mouse PD-1 extracellular domain (with an immunoglobulin Fc region or a His tag) (mouse, UniProt Q02242 25-169).
T2 construct: extracellular domain; Coated on ELISA plates; not shown: either an immunoglobulin Fc region or a His tag
T2 sequence (looked up): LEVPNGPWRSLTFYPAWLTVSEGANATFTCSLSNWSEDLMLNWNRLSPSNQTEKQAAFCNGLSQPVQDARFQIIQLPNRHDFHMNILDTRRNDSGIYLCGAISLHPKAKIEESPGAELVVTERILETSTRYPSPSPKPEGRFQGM
Nature of the test: ELISA, plate-coated recombinant PD-1 extracellular domain. As to the method:
(§1) An enzyme-linked immunosorbent assay (ELISA) was performed to assess the binding of anti-PD-1 antibodies to human, cynomolgus monkey, or mouse PD-1. Recombinant proteins containing the extracellular domain of PD-1 together with either an immunoglobulin Fc region or a His tag were used to coat wells of standard 96 well ELISA plates by overnight incubation at 4° C. Unbound recombinant protein was removed, Pierce SUPERBLOCK™ T20 was added, and plates were incubated for 10 minutes at room temperature with shaking. Plates were washed with phosphate buffered saline-TWEEN-20 (PBST), and anti-PD-1 antibodies were added in phosphate buffered saline (PBS) with 1% bovine serum albumin (BSA) and incubated for one hour at room temperature with shaking. Plates were then washed in PBST and incubated with horse radish peroxidase (HRP)-conjugated secondary antibodies in F(ab′)2 directed to either human IgG or human IgM. After one hour, plates were washed again with PBST, signal was developed with SUPERSIGNAL™ ELISA Pico substrate, and an ENVISION® luminometer (PerkinElmer) was used to record signal. Data were analyzed with […] PRISM®.
(In general: An ELISA detects its analyte on a solid surface through an enzyme-linked reagent.)

Test [4] has as its target T3, Mouse PD-1 overexpressed on HEK293 cells (mouse, UniProt Q02242 25-288).
T3 construct: whole, on cells
T3 sequence (looked up): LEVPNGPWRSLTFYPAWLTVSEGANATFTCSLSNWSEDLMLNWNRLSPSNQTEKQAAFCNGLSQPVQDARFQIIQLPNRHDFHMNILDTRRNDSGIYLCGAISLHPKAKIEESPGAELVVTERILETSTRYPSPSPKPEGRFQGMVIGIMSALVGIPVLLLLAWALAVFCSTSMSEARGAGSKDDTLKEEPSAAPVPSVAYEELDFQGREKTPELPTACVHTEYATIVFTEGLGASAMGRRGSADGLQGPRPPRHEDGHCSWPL
As to the kind of experiment: flow cytometry on HEK293 cells overexpressing mouse PD-1. The method, then:
(§2) HEK293 cells were modified to overexpress human or mouse PD-1. Cells were expanded in puromycin-containing media to maintain selection, and aliquoted to 96 well V-bottom plates for antibody staining and flow cytometric analysis. Anti-PD-1 antibodies were added to cells in BD stain buffer with fetal bovine serum (BD Biosciences, cat. #554656) and incubated on ice for 20 minutes. Cells were then washed, and R-phycoerythrin (PE)-labeled anti-human IgG or anti-human IgM secondary antibodies were then added and incubated for an additional 20 minutes. Data were collected on a Beckman Coulter CYTOFLEX® cytometer and analyzed in FLOWJO™.

Test [5] addresses T4, Human PD-1 overexpressed on HEK293 cells (human, UniProt Q15116 25-288).
T4 construct: whole, on cells
As to the kind of experiment: flow cytometry on HEK293 cells overexpressing human PD-1, PE anti-human IgG detection. The method, then:
as §2

Test [6] concerns the target T1, PD-1 on PD-1 reporter Jurkat cells …. Nature of the test: cell-based or functional assay. The source holds these as a separate data set.
The target in test [7] is T5, Recombinant human PD-1 extracellular domain (with an immunoglobulin Fc region or a His tag) (human, UniProt Q15116 25-170).
T5 construct: extracellular domain; Coated on ELISA plates; not shown: either an immunoglobulin Fc region or a His tag
T5 sequence (Q15116 25-170): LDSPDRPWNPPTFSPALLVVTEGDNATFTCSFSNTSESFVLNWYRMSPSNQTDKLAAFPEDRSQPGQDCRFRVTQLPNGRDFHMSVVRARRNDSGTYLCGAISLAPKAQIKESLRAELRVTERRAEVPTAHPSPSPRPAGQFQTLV
As to the kind of experiment: ELISA, plate-coated recombinant PD-1 extracellular domain, HRP anti-human IgG detection. The method, then:
as §1

The target in test [8] is T5, Recombinant human PD-1 extracellular …. Nature of the test: ELISA, plate-coated recombinant PD-1 extracellular domain, HRP anti-human IgM detection. As to the method:
as §1

Test [9] concerns the target T1, PD-1 on PD-1 reporter Jurkat cells …. As to the kind of experiment: cell-based or functional assay. The source holds these as a separate data set.

T1 sequence (Q15116 25-288): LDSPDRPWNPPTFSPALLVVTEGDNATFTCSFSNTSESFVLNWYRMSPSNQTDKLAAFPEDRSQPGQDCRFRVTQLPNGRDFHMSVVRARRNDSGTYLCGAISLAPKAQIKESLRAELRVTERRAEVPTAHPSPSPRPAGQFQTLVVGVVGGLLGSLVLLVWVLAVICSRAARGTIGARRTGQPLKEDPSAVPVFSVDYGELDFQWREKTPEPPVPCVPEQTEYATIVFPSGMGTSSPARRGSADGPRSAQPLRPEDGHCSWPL
T4 sequence (Q15116 25-288): as above

B1: Anti-PD-1 IgG #4 (antibody, V domains shown)
VH: QVQLVQSGSELKKPGASVKVSCKASGYTFTDYSMHWVRQAPGQGLEWMGWINIETGEPTYAQGFTGRFVFSLDTSVSTAYLQISSLKAEDTAVYFCARDYYGTYFYAMDYWGQGTLVTVSS
VL: EIVLTQSPATLSLSPGERATLSCTASSSVSSSYLHWYQQKPGLAPRLLIYSTSNLASGIPDRFSGSGSGTDYTLTISRLEPEDFAVYYCHQYHRSPLTFGQGTKLEIK
As for B1, in [1], the “PD-1 Signaling EC50 (second incubation at 4 C), IgG” value was found to be 0.89 nM and the “PD-1 Signaling EC50 (second incubation at 4 C), IgG/xlink (crosslinked IgG)” value is 1.7 nM.

B2: Anti-PD-1 IgM #4 (antibody)
VH: B1 VH
VL: B1 VL
chain: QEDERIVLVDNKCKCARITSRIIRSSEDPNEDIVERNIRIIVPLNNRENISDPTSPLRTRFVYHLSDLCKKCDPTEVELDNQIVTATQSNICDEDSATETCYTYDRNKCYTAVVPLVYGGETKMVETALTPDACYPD
As for B2, the “PD-1 Signaling EC50 (second incubation at 4 C), IgM” value in test [1] was 1.1 nM.

B3: Anti-PD-1 IgG #2 (antibody, V domains shown)
VH: QVQLQESGPGVVKPSGTLSLTCAISGGSIGSGGSIRSTRWWSWVRQSPGKGLEWIGEIYHSGSTNYNPSLKSRVTISLDKSRNHFSLRLNSVTAADTAVYYCARQDYGDSGDWYFDLWGKGTMVTVSS
VL: NFMLTQPHSVSESPGKTVTISCTRSSGSIASNSVQWYQQRPGSSPTTVIYEDNQRPSGVPDRFSGSIDSSSNSASLTVSGLKTEDEADYYCQSSDSSAVVFGSGTKLTVL
notes: IgG format; In the 'IgG/xlink' columns it was crosslinked 1:1 with goat anti-human IgG F(ab')2 fragment; also called Antibody #2 (IgG format); #2 IgG
Turning to B3, the “PD-1 Signaling EC50, IgG/xlink (IgG crosslinked 1:1 with goat anti-human IgG F(ab')2 fragment)” value in [2] was determined as 4.8 nM. In test [3], the binding result is recorded as “no binding”. Moreover, in [1], the “PD-1 Signaling EC50 (second incubation at 4 C), IgG” value is 5.9 nM and the “PD-1 Signaling EC50 (second incubation at 4 C), IgG/xlink (crosslinked IgG)” value came to 2.1 nM. The binding result in [4] was “no binding”. Further, the midpoint of the response in test [5], the EC50, lay at 2.9 nM. For the same molecule, in [6], the “PD-1 Signaling EC50 (method of Example 8), IgG” value came out at 22 nM and the “PD-1 Signaling EC50 (method of Example 8), IgG/xlink (crosslinked IgG)” value was 3.8 nM. Further, in [7], the EC50 was determined as 0.6 nM.

B4: Anti-PD-1 IgM #2 (antibody)
VH: B3 VH
VL: B3 VL
chain: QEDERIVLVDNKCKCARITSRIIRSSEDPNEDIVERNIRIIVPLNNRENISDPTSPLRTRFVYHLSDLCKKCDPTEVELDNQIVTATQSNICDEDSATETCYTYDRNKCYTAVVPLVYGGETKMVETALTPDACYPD
notes: also called Antibody #2 (IgM format); pentameric IgM #2
Regarding B4, the binding result in test [3] and in test [4] was “no binding” throughout. In addition, the “PD-1 Signaling EC50 (second incubation at 4 C), IgM” value in test [1] is 0.1 nM. Further, the “PD-1 Signaling EC50 (method of Example 8), IgM” value in [6] was 0.29 nM. Further, in test [8], the half-maximal effective concentration (EC50) turned out to be 0.35 nM. The “PD-1 Signaling EC50 (PATHHUNTER Checkpoint Signaling Assay, reporter Jurkat cells), IgM” value in [9] is 0.72 nM.

B5: Anti-PD-1 Hexameric IgM (IgHM) #2 (antibody, V domains shown)
VH: B3 VH
VL: B3 VL
Consider B5, for which the “PD-1 Signaling EC50 (method of Example 8), IgHM” value (“PD-1 Signaling EC50 … IgHM” below) in test [6] came to 0.4 nM.

B6: Anti-PD-1 IgG #1 (antibody, V domains shown)
VH: EVQLQESGPGLVKPSQTLSLTCTVTGYSITSDYAWNWIRQPPGKKLEWMGYINYSGSTSYNPSLKSRVTISRDTSKNQFSLKLSSVTAADTAVYYCARWIGSSAWYFDVWGQGTLVTVS
VL: DVLMTQTPLSLSVTPGQPASISCRSGQNIVHSNGNTYLEWYLQKPGQSPKLLIYKVSNRFFGVPDRISGSGSGTDFTLKISRVEAEDVGVYFCFQGSHVPFTFGQGTKLEIK
notes: IgG format; In the 'IgG/xlink' columns it was crosslinked 1:1 with goat anti-human IgG F(ab')2 fragment; also called Antibody #1 (IgG format)
In the case of B6, the “PD-1 Signaling EC50, IgG/xlink (IgG crosslinked 1:1 with goat anti-human IgG F(ab')2 fragment)” value in test [2] stood at 0.65 nM. For the same molecule, the binding result in [3] and in test [4] was “no binding” throughout. Further, in test [1], the “PD-1 Signaling EC50 (second incubation at 4 C), IgG” value was 29 nM. The “PD-1 Signaling EC50 (second incubation at 4 C), IgG/xlink (crosslinked IgG)” value in test [1] stood at 4.4 nM. Besides, the EC50 in test [5] turned out to be 59 nM; in [7], 1.5 nM. The “PD-1 Signaling EC50 (method of Example 8), IgG” value in [6] worked out at 85 nM. Moreover, in test [6], the “PD-1 Signaling EC50 (method of Example 8), IgG/xlink (crosslinked IgG)” value was found to be 1.8 nM. The “PD-1 Signaling EC50 (PATHHUNTER Checkpoint Signaling Assay, reporter Jurkat cells), IgG” value in test [9] turned out to be 65 nM.

B7: Anti-PD-1 Hexameric IgM (IgHM) #1 (antibody, V domains shown)
VH: B6 VH
VL: B6 VL
For B7, in test [6], the “PD-1 Signaling EC50 … IgHM” value stood at 0.07 nM.

B8: Anti-PD-1 IgG #3 (antibody, V domains shown)
VH: QVQLVQSGAEVKKPGASVKVSCKVSGYSLSKYDMSWVRQAPGKGLEWMGIIYTSGYTDYAQKFQGRVTMTEDTSTDTAYMELSSLRSEDTAVYYCATGNPYYTNGFNSWGQGTLVTVSS
VL: DIQMTQSPSSLSASVGDRVTITCQASQSPNNLLAWYQQKPGKAPKLLIYGASDLPSGVPSRFSGSGSGTDFTLTISSLQPEDFATYYCQNNYYVGPVSYAFGGGTKVEIK
Turning to B8, in test [1], the “PD-1 Signaling EC50 (second incubation at 4 C), IgG” value was 0.19 nM and the “PD-1 Signaling EC50 (second incubation at 4 C), IgG/xlink (crosslinked IgG)” value came to 0.19 nM. In test [6], the “PD-1 Signaling EC50 (method of Example 8), IgG” value stood at 0.26 nM and the “PD-1 Signaling EC50 (method of Example 8), IgG/xlink (crosslinked IgG)” value worked out at 0.79 nM.

B9: Anti-PD-1 IgM #3 (antibody)
VH: B8 VH
VL: B8 VL
chain: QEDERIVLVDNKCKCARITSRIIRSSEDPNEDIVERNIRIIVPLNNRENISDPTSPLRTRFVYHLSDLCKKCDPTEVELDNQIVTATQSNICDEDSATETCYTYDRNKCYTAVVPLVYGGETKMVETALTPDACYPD
As for B9, the “PD-1 Signaling EC50 (second incubation at 4 C), IgM” value in test [1] came to 0.065 nM. For the same molecule, in test [6], the “PD-1 Signaling EC50 (method of Example 8), IgM” value amounted to 0.13 nM.

B10: Anti-PD-1 Hexameric IgM (IgHM) #3 (antibody, V domains shown)
VH: B8 VH
VL: B8 VL
In the case of B10, in [6], the “PD-1 Signaling EC50 … IgHM” value worked out at 0.2 nM.

B11: Anti-PD-1 pentameric IgM #5 (antibody)
VH: QVQLVESGGGVVQPGRSLRLDCKASGITFSNSGMHWVRQAPGKGLEWVAVIWYDGSKRYYADSVKGRFTISRDNSKNTLFLQMNSLRAEDTAVYYCATNDDYWGQGTLVTVSS
VL: EIVLTQSPATLSLSPGERATLSCRASQSVSSYLAWYQQKPGQAPRLLIYDASNRATGIPARFSGSGSGTDFTLTISSLEPEDFAVYYCQQSSNWPRTFGQGTKVEIK
chain: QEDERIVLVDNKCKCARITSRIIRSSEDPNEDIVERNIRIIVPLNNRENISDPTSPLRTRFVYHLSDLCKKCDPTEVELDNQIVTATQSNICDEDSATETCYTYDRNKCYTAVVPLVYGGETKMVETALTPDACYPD
B11: in test [6], the “PD-1 Signaling EC50 (method of Example 8), IgM” value came to 0.03 nM.

For the origin of these results see US20230212293A1 (published 2023).
